Experimental data published in patent publication US20120264921A1.
One block for each binder: values may come before it.

Biological target: hepatitis B virus surface antigen (HBsAg) (Hepatitis B virus)
Assay: competitive ELISA: plate-coated HBsAg, soluble HBsAg as competitor, purified IgG

- fold lower affinity than HB48-35: 1.3 fold
B1: human antibody HB48-59 (antibody, V domains shown)
VH: QVQLVQSGGEVKKPGALMKVSCKASGYIFTSYGISWVRQAPGQGLEWIGWINTYSGHTNYARKFRGRVTMTWDTSTSTAYMELSSLRSDDTAVYYCARVPTWGIDYWGQGTLVTVSS
VL: DIVMTQTPLSLPVTPGEPASISCRSSQSLLHSNGYNYLDWYLQKPGQSPQLLIYLGSKRASGVPDRFSGSGSGTDFTLQISRVEAEDVGVYYCMQSTQFPPYTFGQGTKLEIKR

- fold lower affinity than HB48-35: 4 fold
B2: human antibody HB48-33 (antibody, V domains shown)
VH: B1 VH
VL: QAGLTQPPSVSVAPGKTARITCGGDNIGRKSVHWYQQKTGQAPVLVVYEDNKRPSGIPERFSGSNSGNTATLTISGTQAMDEADYYCQAWDSSTVVFGGGTKLTVLG
